We go through 20 sequences from the nanobody polyreactivity screen of Harvey et al. (2022).

A short description of this data set: yeast display, Sf9 membrane polyspecificity reagent, FACS + sequencing; frameworks hold sequencing errors. A digest of the protocol: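 A synthetic nanobody library was expressed on Saccharomyces cerevisiae BJ5465 by galactose induction for 36–48 hours. The library was stained for 1 hour at 4 °C with 10% biotinylated, detergent-solubilized Sf9 membrane reagent and enriched with streptavidin microbeads before FACS. Low and high (top ~1%) gates were set on anti-HA fluorescence for expression and streptavidin fluorescence for reagent binding, and each polyreactivity label reflects the gate of origin.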
With “QVQLVESGGGLVQAGGSLRLSCAASGNNFSYNAMGWYRQAPGKERELVAAITTSSGRTYYADSVKGRFTISRDNAKNTVYLQMNSLKPEDTAVYFCNAVQRYQIGYWGQGTQVTVSS”, the “polyreactivity (PSR sort gate)” value is “high polyreactivity”.
Under “QVQLVESGGGLVQAGGSLRLSCAASGNNFYVNVMGSYRQAPGKEMEFVAAISTRGVSTSYADSVKGRFTISRDNAKYTVYLQMNSLKPEDTAVYYCAASFRRPQPKGTTYGYLGQGTQVTVSS” stands “high polyreactivity”; under “QVQLVESGGGLVQAGGSLRLSCAASGNTFDYYAMGWYRQAPGKERELVAAIDSGTTTYYADSVKGRFTISRDNAKNTVYLQMNSLKPEDTAVYYCAAEYAYVPGWYEYWGQGTQVTVSS”, “high polyreactivity”.
To “QVQLVESGGGLVQAGGSLRLSCAASGNTFDYYTMGWYRQAPGKERELVAAISWNGGSTYYADSVKGRFTISRDNAKTTVYLQMNSLKPEDSAVYYCAVLYRSEYDWGQGTQVTVSS” belongs “low polyreactivity”; to “QVQLVESGGGLVQAGGSLRLSCAASGNTFFPYTMGWYRQAPGKERELVAAITWSGVSTYYADSVKGRFTISRDNAKNTVYLQMNSLKPEDTAVYYCAARGPVYVSYPRQYGYWGQGTQVTVSS”, “high polyreactivity”; to “QVQLVESGGGLVQAGGSLRLSCAASGNTFGFYAMGWYRQAPGKERELVAGITSGDSTYYADSVKGRFTISRDNAKNTVYLQMNSLKPEDTAVYYCATAPYVTSRRYGPYEYWGQGTQGTVSS”, “low polyreactivity”.
Under “QVQLVESGGGLVQAGGSLRLSCAASGNTFGKYAMGWSRQAPGKERELLATITRRGGSTYYADSVKGRFTISRDNAKNTVYLQMNSLNPEDTAVYYCAAVVRYRQGVTRSIMDYWGQGTQVTVSS” stands “high polyreactivity”.
As to “QVQLVESGGGLVQAGGSLRLSCAASGNTFGNYAMGWYRQAPGKERELVAAITTIGGSTYYADSVKGRFTISRDNAKNTVYLQMNRLKPEDTAVYYCAKVENRYPVGKYDYWGQGTQVTVSS”, the “polyreactivity (PSR sort gate)” value is reported as “low polyreactivity”.
Under “QVQLVESGGGLVQAGGSLRLSCAASGNTFGYNAMGWYRQAPGKERELVAAISSSGTRTYYADSVKGRFTISRDNAKNTVYLQMNSLKPEDTAVYYCNARSTRYKFGYWGQGTQVTVSS” stands “high polyreactivity”.
Consider “QVQLVESGGGLVQAGGSLRLSCAASGNTFISYAMGWYRQAPGKERELVAAITWSGGSTYYADSVKGRFTISRDNAKNTVYLQMNSLKPEDTAVYYCAKFTHNYYYWGQGTQVTVSS”, for which the “polyreactivity (PSR sort gate)” value was “high polyreactivity”.
To “QVQLVESGGGLVQAGGSLRLSCAASGNTFKTNAMGWYRQAPGKERELVAAISSSGSTYYADSVKGRFTISRDNAKNTVYLQMNSLKPEDTAVYYCAVTYRRFYYWGQGTQVTVSS” belongs “high polyreactivity”; to “QVQLVESGGGLVQAGGSLRLSCAASGNTFNGYTMGWYRQATGKERELVAVISSYGGRTNYADSVKGRFTISRDNAKITLYLQLNSLKTEVTAVYYCAARSSRLPHIYGYWGQGTQVTVSS”, “low polyreactivity”.
Under “QVQLVESGGGLVQAGGSLRLSCAASGNTFNVYAMGWYRQAPGKERELVAAITLSGGSTYYADSVKGRFTISRDNAKNTVYLQMNSLKPEDTAVYYCNAEEVGTDYDYWGQGTQVTVSS” stands “low polyreactivity”; under “QVQLVESGGGLVQAGGSLRLSCAASGNTFPLNAMGWYRQAPGKERDLVAGISRTGGSTYYADSVKGRFTISRDNAKNTVYLQMNSLKPEDTAVYYCAAQSRYWVVRMDYWGQGTQVTVSS”, “high polyreactivity”; under “QVQLVESGGGLVQAGGSLRLSCAASGNTFPVYAMGWYRQAPGKERELVAAINTSGGSTYYADSVKGRFTISRDNAKYTVYLQMNSLKPEDTAVYYCAADWSYYGDELYYWGQGTQVTVSS”, “low polyreactivity”.
To “QVQLVESGGGLVQAGGSLRLSCAASGNTFPYYAMGWYRQAPGKEREYVATIDRGDGSTYYADSVKGRFTISRDNAKNTVYLQMNSVKPEDTAVYYCAKLRGAFIVPGRGYPIYYYWGQGTQVTVSS” belongs “high polyreactivity”; to “QVQLVESGGGLVQAGGSLRLSCAASGNTFRAYAMGWYRQAPGKERELVATITWSGGITDYADSVKGRFTISRDNAKNTVSLQMNSLKPEDTAVYDCAARSYRWWNFNYWGQGTQVTVSS”, “high polyreactivity”; to “QVQLVESGGGLVQAGGSLRLSCAASGNTFRFYTMGWYRQAPGKERELVAAINSSGRTNYADSVKGRFTISRDNAKNTVYLQMNSLIPEDTAVYYCAADQQRSIDAPYGYWGQGTQVTVSS”, “low polyreactivity”.
On to “QVQLVESGGGLVQAGGSLRLSCAASGNTFRFYTMGWYRQAPGKERELVAAINSSGRTNYADSVKGRFTISRDNAKNTVYLQMNSLKPEDTAVYYCAADYYQWSSFLGVYEYDYWGQGTQVTVSS”, for which the “polyreactivity (PSR sort gate)” value is listed as “low polyreactivity”.
To “QVQLVESGGGLVQAGGSLRLSCAASGNTFRIYTMGWYRQAPGKERELVATITRRGGSTYYADSVKGRFTISRDNAKNTVYLQMNSLKPEDTAVYYCAARVRGTGVYGGYNYWGQGTQVTVSS” belongs “high polyreactivity”.
